The target in one series is T1, gelatinase A (Homo sapiens, UniProt P08253).
T1 construct: made in house; host or cells: Natural (endogenous) secretion of the T98G human glioblastoma cell line
T1 sequence (P08253 110-660): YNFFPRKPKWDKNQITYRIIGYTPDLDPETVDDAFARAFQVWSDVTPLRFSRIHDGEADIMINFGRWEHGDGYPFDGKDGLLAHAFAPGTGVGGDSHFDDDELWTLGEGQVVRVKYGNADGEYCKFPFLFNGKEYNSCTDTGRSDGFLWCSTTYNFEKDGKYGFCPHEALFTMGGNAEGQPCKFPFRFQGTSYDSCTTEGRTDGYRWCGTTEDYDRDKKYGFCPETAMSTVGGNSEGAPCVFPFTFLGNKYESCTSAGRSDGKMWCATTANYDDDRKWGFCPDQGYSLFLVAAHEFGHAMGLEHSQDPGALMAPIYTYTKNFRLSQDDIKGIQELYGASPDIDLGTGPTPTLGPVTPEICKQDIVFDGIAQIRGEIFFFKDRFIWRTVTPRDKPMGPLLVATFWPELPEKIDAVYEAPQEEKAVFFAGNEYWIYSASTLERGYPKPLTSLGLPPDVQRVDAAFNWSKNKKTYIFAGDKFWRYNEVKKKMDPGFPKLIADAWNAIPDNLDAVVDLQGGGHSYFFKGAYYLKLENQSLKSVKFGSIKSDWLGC
Kind of series: Hydrolysis of synthetic peptide βAP10-20 by activated gelatinase A (reverse phase HPLC), enzyme kinetic analysis. The series is classed as biochemical. The conditions noted are these: hydrolysis of β-AP10-20 by APMA/stromelysin activated gelatinase A; from slope of Dixon plot (1/v vs (I)). The method, then: (§1) FIGS. 5 (A) and (B) show the degradation of synthetic peptide βAP10-20by gelatinase A. By heparin affinity chromatography according to the method by (Kelkenbrock), TIMP-2-free progelatinase A was isolated from TIMP-2 binding form. Proenzyme (1 μg) was activated by incubating for 1 hour at 37° C. in 20 mMTris-HCl (pH 7.5) containing 10 mMCa^2+ with 1 mMAPMA and 0.25 μg of rat stromelysin. Then, the activated enzyme was incubated for 6 hours at 37° C. in the absence or presence of 5 μg of 100-kDa APP in 50 μl of Tris-HCl/Ca^2+ buffer with 20 nmol (28 μg) of synthetic peptide β-AP10-20 (cf. FIG. 2D). Then the mixture was admixed with 0.5 ml of 0.05% trifluoroacetic acid (TFA), and loaded to Cosmosil 5C18 reverse phase HPLC column (4.6×150 mm) (Nacalai Tesque, Kyoto, Japan). The column was eluted at the flow rate of 0.5 ml/min with 15 ml of 0 to 80% linear gradient acetonitrile in 0.05% TFA. The amino acid sequence of the […] was analyzed by a protein sequencer. As previously reported, rat stromelysin was purified with the proenzyme form and activated by APMA. Under the condition described above, stromelysin hardly hydrolyzed βAP10-20.
(§2) FIG. 5(A) and (B) represent enzyme kinetic analysis of the inhibition of gelatinase A activity by 100-bDa APP. […] The maximum concentration of 100-kDa APP ([…]) corresponded to about 910 nM. […]

For another series, the target named is T2, human progelatinase A (Homo sapiens, UniProt P08253).
T2 construct: obtained from the culture supernatant of T98G human glioblastoma cell line; made in house; host or cells: Natural (endogenous) secretion of the T98G human glioblastoma cell line, purified from the culture supernatant
T2 sequence (P08253 110-660): T1 sequence (P08253 110-660)
Nature of the series: Reverse zymography of gelatinase A inhibitor on gelatine-containing SDS polyacrylamide gel. The conditions noted are these: 0.2 μg/lane protein; gel incubated with 1 μg/ml human progelatinase A and 1 mM APMA. The series is classed as biochemical. The source says:
The large triangle arrow represents 100-kDa inhibitor. Three small triangle arrows represent TIMP (28 kDa), unidentified 22-kDa inhibitor and TIMP-2 (20 kDa). The bands of negative image (white lines) indicate gelatine degradation activity secreted by tumor cells. b represents the results of non-reductive SDS-PAGE of purified 100-kDa inhibitor, while c represents the results of SDS-PAGE (lanes 1 to 3) and the reverse zymograms of 100-kDa inhibitor (lane 1, 2, 4 and 5) and human TIMP (lane 3 and 6). Equal amount (0.2 μg/lane) of the protein was analyzed under reductive condition (lanes 2 and 5) and non-reductive condition (lane 1, 3, 4 and 6). […] 100-kDa inhibitor (200 μg) was incubated with 0.3 μg of endoproteinase Lys-C (Sigma, St. Louis, Mo.) for 60 minutes at 30° C. in 60 μl of 50 mM Tris-HCl (pH 7.5) containing 2M urea and 1M NaCl, and a part of digestion products were subjected to electrophoresis. As a result, a peptide from 439V through 687 k of the amino acid sequence in FIG. 1 was obtained.
The supernatant of EJ-1 cell culture which had been incubated for 2 days in serum-free RPMI1640 medium was used for the preparation. The reverse zympgraphy of gelatinase A inhibitor was conducted on polyacrylamide gel containing 0.1% SDS and 1 mg/ml of gelatine by a modified Herroh's method. […]

Substrate in series [1]: CC(C)C[C@H](NC(=O)[C@H](CCCCN)NC(=O)[C@H](CCC(N)=O)NC(=O)[C@H](Cc1c[nH]cn1)NC(=O)[C@H](Cc1c[nH]cn1)NC(=O)[C@@H](NC(=O)[C@H](CCC(=O)O)NC(=O)[C@@H](N)Cc1ccc(O)cc1)C(C)C)C(=O)N[C@H](C(=O)N[C@@H](Cc1ccccc1)C(=O)N[C@@H](Cc1ccccc1)C(=O)O)C(C)C
Kind of series: Hydrolysis of synthetic peptide βAP10-20 by activated gelatinase A (reverse phase HPLC), enzyme kinetic analysis. The series is classed as biochemical, human. The conditions noted are these: other: hydrolysis of βAP10-20 by activated gelatinase A; Lineweaver-Burk plots, 30 to 400 μM substrate; pH 7.5. On the procedure: as §1, §2

In general, Ki refers to the dissociation constant of the complex between target and ligand, obtained from inhibition or displacement. The low end stands for tighter binding, the high end for weaker binding. Turning to “100-kDa APP: secretory form of APP (gelatinase A inhibition protein), 100k, from EJ-1 culture fluid; 18L through 687K of APP770”, the Ki with gelatinase A came to 40 nM. Moreover, the “inhibitor bands on the reverse zymograms” value with human progelatinase A is “markedly stained gelatine bands (inhibitor bands)”.

As to “human TIMP: known gelatinase inhibitor (28 kDa) used as comparison in reverse zymography [reference compound]”, the “inhibitor bands on the reverse zymograms” value in the series with human progelatinase A is on record as “markedly stained gelatine bands (inhibitor bands)”.

B1: gelatinase A (Homo sapiens) (protein)
chain: T1 sequence (P08253 110-660)
notes: made in house; host or cells: Natural (endogenous) secretion of the T98G human glioblastoma cell line
In general, Km refers to the substrate concentration at which the rate is half of its maximum. The Vmax is the top rate of the reaction or transport when substrate is in excess. In the case of B1, in series [1], the Km was found to be 130 µM and the Vmax turned out to be 3.9 nmol/h.

These data come from US5550216A, “Gelatinase A inhibitor, and analytical reagent thereof for the determination of gelatinase A” (Oriental Yeast Co., Ltd., priority 1993, dated 1996).
